Laboratory results published in the supplement of paper PMC10567573.

B1: NP_006221.1 (parent)
chain: CQPISFSGFGAEDDDLGGLGLGP
B2: ZBTB22 (parent)
chain: RPFDCPVCNKKFKMKHHLTEHMKT

Variants of: B1
Assay: protein stability index of a GFP-peptide fusion (GPS, HEK-293T) (PSI 1-6); higher = more stable
Conditions: c terminus: native

Protein stability index, by site and new letter:
L21: T 3.94, S 5.12, A 4.88, D 5.19, G 4.98, N 4.89, E 5.34, V 3.37, I 3.46, C 3.02, H 4.76, W 4.11, R 2.74, Y 4.14, F 4, K 3.95, M 3.33, P 5.09, Q 4.85
A11: H 2.37, G 2.36, I 2.65, Y 2.06, T 2.26, E 2.02, W 2.06, M 2.04, F 1.95, S 2.22, R 2.32, K 2.09, Q 2.32, L 1.81, D 2.37, V 2.33, N 2.09, P 2.17, C 2.08
D13: E 2.22, F 2.54, G 2.53, S 2.41, P 2.08, C 2.42, Q 2.21, M 2.24, W 2.31, V 2.28, R 2.04, T 2.28, N 2.2, I 2.5, A 2.46, H 2.2, L 2.27, Y 2.02, K 1.93
G8: V 2.16, R 2.52, P 3.55, K 2.48, S 2.15, L 1.97, Q 1.87, M 2.23, I 2.06, N 2.24, W 2.19, Y 2.31, T 2.34
G17: D 2.33, I 1.93, S 2.26, E 2.36, Q 2.12, V 1.99, A 2.16, N 2.36, P 2.05, W 2.46, K 2.08, T 2.1, L 2.2, H 2.17, F 2.08, R 1.52, M 1.7, C 2.2, Y 2.15
G20: Y 2.83, I 3.2, L 3.54, F 3.81, E 2.81, R 3.93, K 4.31, A 2.29, N 3.93, H 2.93, M 2.77, V 3.37, C 2.51, P 3.11, W 3.19, D 2.58, S 2.69, Q 2.69, T 3.68
P23: L 3.57, A 2.17, T 3.8, I 2.95, S 4.5, R 2.95, Y 2.25, V 3.45, M 2.91, D 5.01, Q 4.25, N 4.72, E 4.96, F 3.04, C 3.17, H 3.99, G 2.25, W 2.73, K 4.66
D15: C 2.18, I 2.4, Y 2.35, K 2.2, N 2.18, A 2.28, P 2.38, H 2.08, W 2.44, T 2.52, S 2.38, L 2.41, Q 2.67, M 2.47, R 2.13, E 2.15, G 2.57, V 2.29, F 2.32
G10: N 2.04, D 2.51, V 2.2, L 2.56, I 2.08, P 1.83, Y 1.94, F 2.06, E 2.08, A 2.16, K 1.96, S 1.95, M 2.29, W 1.9, R 2.21, C 2.04, T 1.91, H 1.99, Q 2.3
D14: V 2.12, T 2.18, L 2.44, P 2.19, W 2.48, F 2.51, H 2.27, S 2.05, Y 2.12, E 2.17, C 2.12, Q 2.11, K 2.46, I 2.21, N 2.33, G 2.13, A 2.23, R 1.99, M 2.29
E12: H 2.48, S 2.44, I 1.94, R 2.31, C 2.43, T 2.06, G 2.5, M 2.25, F 2.17, A 2.32, K 2.17, V 2.3, Y 2.12, W 2.29, N 2.32, P 2.07, D 2.22, L 1.88
L19: H 2.96, G 2.87, F 2.51, K 1.99, I 2.13, Y 2.31, P 2.7, V 2.11, N 2.54, M 2.29, T 3.02, Q 2.39, E 2.49, D 2.39, W 2.78, A 2.72, C 2.52, S 2.91
G22: Q 2.27, C 2.25, H 2.8, E 2.13, K 4.15, N 3.35, P 4.39, I 2.37, S 2.1, V 2.11, L 2.46, R 3.32, F 2.4, T 2.22, A 2.29, M 2.32, W 2.46, Y 2.59, D 2.15
G18: N 2.16, H 1.99, C 2.35, W 2.57, L 2.24, F 2.24, R 2.31, P 1.99, V 2.17, D 2.19, Y 2.18, T 2.23, I 2.18, Q 2, K 1.93, M 1.99, S 2.24, E 2.42, A 2.13
L16: S 2.28, F 2.23, E 1.85, V 2.36, I 2.21, K 2.25, T 2.35, G 2.21, H 2.26, R 2.18, Y 2.27, A 2.59, Q 2.27, W 2.25, P 2.15, C 2.34, M 2.45, N 2.07, D 2.22
F9: Q 2.54, M 2.41, R 2.04, I 2.35, H 2.42, Y 2.01, V 2.25, C 2.36, A 2.58, N 2.87, S 2.56, P 3.23, T 2.7, G 3.01, L 2.23, E 2.98, W 2.53, K 2.4, D 3.32

Variants of: B2
Assay: as above
Conditions: c terminus: a fixed tail appended

Protein stability index: each site, then its substitutions
C5: E 3.76, D 3.21
K10: G 2.25, H 2.47
D4: M 3.5
P6: E 2.85
H21: V 2.44
M14: V 2.58
H17: R 2.18, G 1.74
M22: H 2.75
C8: F 2.26, K 3.34, W 2.42
N9: C 2.43
K13: E 3.31, H 2.65, M 2.27
K11: Y 2.17
F3: I 2.55, K 2.61, H 2.56
E20: K 3.1
V7: G 3.06
K23: M 2.11
F12: I 2.49, Y 2.4, S 2.53, E 3.22
L18: C 4.01, T 2.67, H 3.08
P2: Y 2.6, S 3.39
R1: Q 2.8, N 2.64, K 2.74
H16: C 2.91
